Data taken from publication doi:10.1101/2024.03.29.587195 (bioRxiv, 2024).
Values joined by “and” are separate entries in the source; they are usually repeats but may differ in a detail not shown here. Equal values may be shown once.

Molecular target: the molecule itself
Assay: cryo-EM structure

B1: CoaXMtb, untagged, recombinant (cryo-EM sample) (natural protein)
chain: MLLAIDVRNTHTVVGLLSGMKEHAKVVQQWRIRTESEVTADELALTIDGLIGEDSERLTGTAALSTVPSVLHEVRIMLDQYWPSVPHVLIEPGVRTGIPLLVDNPKEVGADRIVNCLAAYDRFRKAAIVVDFGSSICVDVVSAKGEFLGGAIAPGVQVSSDAAAARSAALRRVELARPRSVVGKNTVECMQAGAVFGFAGLVDGLVGRIREDVSGFSVDHDVAIVATGHTAPLLLPELHTVDHYDQHLTLQGLRLVFERNLEVQRGRLKTAR
  stoichiometry N: 6 and 4
